Reference: patent US20030235860A1, “Interactions between AR, ER, TR2, and TR4” (priority 1999, published 2003)

T1: TR4 (Homo sapiens, UniProt P49116)
T1 construct: full-length AR and TR4 in eukaryotic expression vectors (pSG5AR and pCMXTR4) were co-transfected; expressed in transfected cells; host or cells: H1299, HepG2
T1 sequence (P49116 1-615 isoform P49116-2 N175S/W419R/A428G/K503N/L504W/A613V): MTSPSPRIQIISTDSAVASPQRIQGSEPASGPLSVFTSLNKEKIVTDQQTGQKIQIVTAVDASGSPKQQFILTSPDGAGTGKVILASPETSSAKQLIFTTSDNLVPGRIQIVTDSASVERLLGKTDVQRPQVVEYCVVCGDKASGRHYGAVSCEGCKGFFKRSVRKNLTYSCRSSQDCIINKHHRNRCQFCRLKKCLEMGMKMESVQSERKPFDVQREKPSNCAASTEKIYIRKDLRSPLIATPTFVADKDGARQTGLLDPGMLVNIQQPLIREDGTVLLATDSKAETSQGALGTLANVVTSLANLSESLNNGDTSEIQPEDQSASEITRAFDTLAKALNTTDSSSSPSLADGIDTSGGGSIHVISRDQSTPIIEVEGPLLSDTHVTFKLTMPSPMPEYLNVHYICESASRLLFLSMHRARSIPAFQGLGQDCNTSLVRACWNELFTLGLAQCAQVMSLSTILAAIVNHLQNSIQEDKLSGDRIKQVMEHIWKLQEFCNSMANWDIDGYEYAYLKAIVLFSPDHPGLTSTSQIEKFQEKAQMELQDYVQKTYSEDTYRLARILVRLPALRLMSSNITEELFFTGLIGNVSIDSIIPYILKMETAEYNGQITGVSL

T2: TR2 (Homo sapiens, UniProt P13056)
T2 sequence (P13056 1-603): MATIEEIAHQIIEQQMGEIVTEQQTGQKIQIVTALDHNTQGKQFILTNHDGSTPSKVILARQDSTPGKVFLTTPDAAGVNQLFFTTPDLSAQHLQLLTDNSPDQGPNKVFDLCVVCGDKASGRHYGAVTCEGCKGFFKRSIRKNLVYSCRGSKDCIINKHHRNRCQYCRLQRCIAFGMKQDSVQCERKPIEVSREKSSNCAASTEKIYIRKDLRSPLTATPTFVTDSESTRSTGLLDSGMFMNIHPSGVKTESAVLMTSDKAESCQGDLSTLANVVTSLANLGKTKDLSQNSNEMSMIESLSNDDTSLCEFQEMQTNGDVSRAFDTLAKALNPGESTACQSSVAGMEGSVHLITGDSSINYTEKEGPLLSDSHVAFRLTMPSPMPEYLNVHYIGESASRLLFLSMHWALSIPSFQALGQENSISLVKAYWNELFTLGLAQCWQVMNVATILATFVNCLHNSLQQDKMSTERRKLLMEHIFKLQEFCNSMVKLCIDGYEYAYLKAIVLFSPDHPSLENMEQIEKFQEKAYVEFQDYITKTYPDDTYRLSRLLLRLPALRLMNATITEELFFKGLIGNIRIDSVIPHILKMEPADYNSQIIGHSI

T3: TR4 orphan receptor (TR4), full-length (human, UniProt P49116 1-596)
T3 construct: Full-length TR4; 35S-labeled when in vitro translated, expressed from plasmids in the cell assays; also called pCMX-TR4; pCMV-TR4
T3 sequence: T1 sequence (P49116 1-615 isoform P49116-2 N175S/W419R/A428G/K503N/L504W/A613V)

B1: estrogen receptor (ER), full-length (receptor)
chain: MTMTLHTKASGMALLHQIQGNELEPLNRPQLKIPLERPLGEVYLDSSKPAVYNYPEGAAYEFNAAAAANAQVYGQTGLPYGPGSEAAAFGSNGLGGFPPLNSVSPSPLMLLHPPPQLSPFLQPHGQQVPYYLENEPSGYTVREAGPPAFYRPNSDNRRQGGRERLASTNDKGSMAMESAKETRYCAVCNDYASGYHYGVWSCEGCKAFFKRSIQGHNDYMCPATNQCTIDKNRRKSCQACRLRKCYEVGMMKGGIRKDRRGGRMLKHKRQRDDGEGRGEVGSAGDMRAANLWPSPLMIKRSKKNSLALSLTADQMVSALLDAEPPILYSEYDPTRPFSEASMMGLLTNLADRELVHMINWAKRVPGFVDLTLHDQVHLLECAWLEILMIGLVWRSMEHPVKLLFAPNLLLDRNQGKCVEGMVEIFDMLLATSSRFRMMNLQGEEFVCLKSIILLNSGVYTFLSSTLKSLEEKDHIHRVLDKITDTLIHLMAKAGLTLQQQHQRLAQLLLILSHIRHMSNKGMEHLYSMKCKNVVPLYDLLLEMLDAHRLHAPTSRGGASVEETDQSHLATAGSTSSHSLQKYYITGEAEGFPATV
notes: 35S-labeled when in vitro translated for the pull-downs; endogenous in MCF7 cells for the co-immunoprecipitation; also called ERα; pSG5-ER
B2: PR: progesterone receptor (protein)
chain: MTELKAKGPRAPHVAGGPPSPEVGSPLLCRPAAGPFPGSQTSDTLPEVSAIPISLDGLLFPRPCQGQDPSDEKTQDQQSLSDVEGAYSRAEATRGAGGSSSSPPEKDSGLLDSVLDTLLAPSGPGQSQPSPPACEVTSSWCLFGPELPEDPPAAPATQRVLSPLMSRSGCKVGDSSGTAAAHKVLPRGLSPARQLLLPASESPHWSGAPVKPSPQAAAVEVEEEDGSESEESAGPLLKGKPRALGGAAAGGGAAAVPPGAAAGGVALVPKEDSRFSAPRVALVEQDAPMAPGRSPLATTVMDFIHVPILPLNHALLAARTRQLLEDESYDGGAGAASAFAPPRSSPCASSTPVAVGDFPDCAYPPDAEPKDDAYPLYSDFQPPALKIKEEEEGAEASARSPRSYLVAGANPAAFPDFPLGPPPPLPPRATPSRPGEAAVTAAPASASVSSASSSGSTLECILYKAEGAPPQQGPFAPPPCKAPGASGCLLPRDGLPSTSASAAAAGAAPALYPALGLNGLPQLGYQAAVLKEGLPQVYPPYLNYLRPDSEASQSPQYSFESLPQKICLICGDEASGCHYGVLTCGSCKVFFKRAMEGQHNYLCAGRNDCIVDKIRRKNCPACRLRKCCQAGMVLGGRKFKKFNKVRVVRALDAVALPQPVGVPNESQALSQRFTFSPGQDIQLIPPLINLLMSIEPDVIYAGHDNTKPDTSSSLLTSLNQLGERQLLSVVKWSKSLPGFRNLHIDDQITLIQYSWMSLMVFGLGWRSYKHVSGQMLYFAPDLILNEQRMKESSFYSLCLTMWQIPQEFVKLQVSQEEFLCMKVLLLLNTIPLEGLRSQTQFEEMRSSYIRELIKAIGLRQKGVVSSSQRFYQLTKLLDNLHDLVKQLHLYCLNTFIQSRALSVEFPEMMSEVIAAQLPKILAGMVKPLLFHKK

What was measured:
[1] = target: T1, TR4; assay: TR4-mediated transactivation reporter assay; format: cell-based; details: H1299 cells; absence or presence of DHT
Experimental: Cells were routinely maintained in DMEM with 10% heat-inactivated fetal bovine serum. The cells were transfected using a modified calcium phosphate precipitation method, Mizokami, & Chang, J: Biol. Chem. 269,25655-25659 (1994), or SuperFect (Qiagen). To normalize the transfection efficiency, the (3-galactosidase expression ver and pRL-TK were co-transfected in CAT assay and in Dual-luciferase reporter assay system (Promega), respectively.
More specifically, 500 ng of reporter plasmids were co-transfected(DR4-CAT and CNTFR-15-LUC) with 200 ng of pCMX-TR4 and increasing amounts of pCMV-AR (200, 600, and 1,200 ng), pSG5GR (1,200 ng), or pSG5 PR (1,200 ng) using the SuperFect transfection kit (Qiagen) (PCMV AR Mowszowicz et al., (1993) Molecular Endocrinology 7:861:869). […] Similar results were obtained when the DR4-TK-CAT reporter was replaced with DR1-CNTFR-15-LUC, another TR4 response element (FIG. 3A). Young, et al., J: Biol. Chem. 272,3109-3116 (1997).
Another TR4 potential target gene, which is located in the hepatitis B virus (HBV) enhancer II region (−34 to −7) containing a classic DR1 motif. Breidbart, et al., Pediatric Res. 34,300-302 (1993), was investigated. The reporter plasmid CpFL(4)-LUC, which contains the HBV core promoter (Cp) sequence located between −34 and −7 (nucleotide coordinates 1751 and 1778 derived from the Genbank database) was shown above in FIG. 3B. The arrows indicate the DRI motif in HBV core promoter. HepG2 cells were co-transfected with 1.5 μg CpFL(4)-LUC reporter and 0.5 μg pCMX-TR4, with increasing amounts of pCMV-AR (0.5, 2.5, and 5 μg) by modified calcium phosphate precipitation method. The relative reporter gene activities were compared to the CAT activities (or luciferase activities) with vector alone. To normalize the transfection efficiency, the β-galactosidase expression vector and pRL-TK were co-transfected in the CAT assay and in the Dual-luciferase reporter assay system (Promega), respectively.

[2] = target: T2, TR2; assay: TR2-mediated transactivation reporter assay; format: cell-based; details: H1299 cells; absence or presence of E2
Experimental: Transfections and chloramphenicol acetyltransferase (CAT) assays were performed as described previously. Yeh, & Chang, Proc. Natl. Acad. Sci. 93, 5517-5521 (1996). Briefly, 4×10^5 cells were plated in 60-mm dishes and cultured for 24 h, and then the medium was changed to phenol red free DMEM with 5% charcoal-stripped FCS 2 h before transfection. The cells were co-transfected with TR2 and/or ER expression plasmids with 2 μg of TR2-TK-CAT reporter or 1 μg of ERE-CAT reporter gene plasmid, as indicated in the Figures, by using the calcium phosphate precipitation method. A β-gal actosidase expression plasmid, pCMV-β-gal, was transfected in all transfections as an internal control for normalizing transfection efficiency. The total amount of DNA was adjusted up to 10.5 μg with parent vectors, pSG5 or pCMV in each transcriptional activity assay. […] The cells were then harvested and whole cell extracts were used for CAT assay. The CAT activity was quantitated by Phosphorlmager (Molecular Dynamics). Data are presented as means±S.D. of at least three independent experiments.
The CAT reporter assay was used to study the potential consequence of the formation of heterodimers between the TR2 and ER. […] More specifically, H1299 cells were transiently cotransfected with 2 μg of DR4-TK-CAT reporter plasmid and 3 μg of TR2 expression plasmid together with increasing amounts of the ER expression vector. […] Cells were also transfected with internal control reporter plasmid, pCMV-β-gal, as an internal control for transfection efficiency. Luciferase activity was then analyzed following manufacturer's instructions (Promega). […] Similar results were obtained when the DR4-TK-CAT reporter with DR1-HBV-LUC were replaced, another TR2 response element (FIG. 7C).
This conclusion was further confirmed by using the chimera receptor, TR2-androgen receptor (AR) ARp-TR2, which was generated by swapping TR2 proximal box (P-box) with that found in the AR. […] Luciferase activity was then analyzed following manufacturer's instructions (Promega). […]

[3] = target: T4, interaction between AR and TR4 (Homo sapiens, UniProt P10275, DEL79-80/DUP473-473); assay: Modified mammalian one-hybrid system pSG5AR / GAL4-TR4E; format: cell-based; details: 1 μM of anti androgen
T4 construct: A full-length AR(pSG5AR) was co-transfected with GAL4-TR4E; expressed in transfected cells; host or cells: H1299
Experimental: A full-length AR(pSG5AR) was co-transfected with GAL4-TR4E and PG5-Luc reporter in H1299 cells (pSG5AR, pSG5GR, pSG5PR, disclosed in Yeh et al., Proc Natl. Acad. Sci., 93:5517-5521 (1996), which is herein incorporated by reference at least for material related to plasmids and assays, including sequence).
Transfection was performed by a modified calcium phosphate precipitation method. The pRL-TK plasmid was co-transfected for normalization of transfection efficiency.

[4] = target: T3, TR4 orphan receptor (TR4), full-length; assay: Table 4, summary of interactions tested; assay not given

T4 sequence (P10275 with tags, fused parts or gaps DEL79-80/DUP473-473): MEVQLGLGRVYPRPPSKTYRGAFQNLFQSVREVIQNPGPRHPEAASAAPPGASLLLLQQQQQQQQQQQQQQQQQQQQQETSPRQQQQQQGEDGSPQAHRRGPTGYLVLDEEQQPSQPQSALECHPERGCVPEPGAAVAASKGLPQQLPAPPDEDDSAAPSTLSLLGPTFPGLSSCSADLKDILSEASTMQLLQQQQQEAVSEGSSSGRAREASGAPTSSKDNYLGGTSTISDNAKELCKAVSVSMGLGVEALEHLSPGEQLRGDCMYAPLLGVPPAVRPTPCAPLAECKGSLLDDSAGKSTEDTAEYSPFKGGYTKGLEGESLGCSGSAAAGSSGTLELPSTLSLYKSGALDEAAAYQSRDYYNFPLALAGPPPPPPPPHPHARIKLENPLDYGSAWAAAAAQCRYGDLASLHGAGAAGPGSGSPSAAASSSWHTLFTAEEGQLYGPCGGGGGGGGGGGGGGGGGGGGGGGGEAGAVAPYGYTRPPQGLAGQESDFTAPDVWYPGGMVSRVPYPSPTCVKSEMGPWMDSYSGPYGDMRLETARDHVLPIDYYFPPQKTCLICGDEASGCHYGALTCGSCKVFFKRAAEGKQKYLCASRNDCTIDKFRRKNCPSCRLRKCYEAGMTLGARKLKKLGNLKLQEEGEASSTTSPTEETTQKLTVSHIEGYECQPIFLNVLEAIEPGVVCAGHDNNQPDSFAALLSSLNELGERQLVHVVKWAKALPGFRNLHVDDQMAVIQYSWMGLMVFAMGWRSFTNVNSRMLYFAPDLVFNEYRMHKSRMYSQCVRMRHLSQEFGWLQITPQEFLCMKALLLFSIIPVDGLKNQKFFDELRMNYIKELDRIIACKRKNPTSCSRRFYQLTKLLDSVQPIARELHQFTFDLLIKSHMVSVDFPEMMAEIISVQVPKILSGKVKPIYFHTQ

Molecule	CAT activity induced by pCMXTR4 (DR4-TK-CAT; similar with DR1-CNTFR-I5-LUC) [1]	CAT activity induced by pCMV-TR2 (DR4-TK-CAT; similar with DR1-HBV-LUC) [2]	Effect on DHT-enhanced interaction between AR and TR4 [3]	binding result [4]
GR: glucocorticoid receptor	no suppressive effects	no suppressive effect	–	–
CC1(C)C(=O)N(c2ccc(C#N)c(C(F)(F)F)c2)C(=O)N1CCCCO [RU58841]	–	–	abolish	–
CC(C)(O)C(=O)Nc1ccc([N+](=O)[O-])c(C(F)(F)F)c1 [hydroxyflutamide]	–	–	abolish	–
B1	–	–	–	binds
B2	no suppressive effects	no suppressive effect	–	–
